Measured values: the supplement of paper PMC10567573

B1: ZNF263 (parent)
chain: PEASHLRFRRFRFQEAAGPREALS
B2: LOXL2 (parent)
chain: FSPDGPSRFRKAYKPEQPLVRLRG

Variants of: B1
Assay: protein stability index of a GFP-peptide fusion (GPS, HEK-293T) (PSI 1-6); higher = more stable
Settings: c terminus: a fixed tail appended
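Further: lentivirally expressed fusions sorted by FACS into six bins by GFP to DsRed ratio, PSI derived from sequencing read proportions per bin multiplied by bin number.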

Row | Variant | protein stability index
1 | A3T | 2.52
2 | A3N | 1.98
3 | A16K | 2.61
4 | A16E | 2.36
5 | A16Y | 2.1
6 | E2H | 2
7 | R9D | 2.69
8 | R9G | 3.36
9 | R9Q | 3.44
10 | R9L | 2.8
11 | R10T | 2.93
12 | R10C | 2.28
13 | R10Q | 3.07
14 | R10M | 3.12
15 | S24I | 2.52
16 | S24M | 2.19
17 | S24V | 2.2
18 | S24C | 2.42
19 | S24Q | 2.49
20 | R7V | 2.65
21 | R7D | 2.78
22 | E15P | 2.32
23 | R12C | 1.81

Row | Variant | protein stability index
24 | R12N | 3.77
25 | F13P | 3.9
26 | F13M | 3.59
27 | F13D | 4.81
28 | E21Y | 2.58
29 | L23M | 2.45
30 | H5R | 2.68
31 | H5Q | 3.04
32 | H5Y | 1.95
33 | H5F | 2.12
34 | H5I | 1.91
35 | H5D | 3.21
36 | F8L | 2.84
37 | Q14K | 3.34
38 | Q14N | 3
39 | A22R | 2.8
40 | S4M | 3.15
41 | S4I | 1.7
42 | P19Y | 1.69
43 | G18T | 2.97
44 | G18M | 2.7
45 | L6P | 3.03
46 | L6K | 2.73

Variants of: B2
Assay: as above
Settings: c terminus: a fixed tail appended

Row | Variant | protein stability index
47 | P3Y | 2.13
48 | P3Q | 2.17
49 | P3R | 2.12
50 | P3N | 1.73
51 | P3E | 1.97
52 | P3A | 1.79
53 | P3H | 1.9
54 | P3S | 2.31
55 | P3D | 2
56 | P3L | 1.96
57 | P3K | 1.71
58 | P3T | 2.21
59 | P3M | 2.33
60 | P3F | 2.41
61 | P3V | 2.6
62 | P3C | 1.97
63 | P3I | 2.26
64 | P3W | 1.66
65 | S2E | 3.62
66 | S2D | 3.05
67 | S2T | 3.36
68 | S2G | 2.11
69 | S2M | 2.37
70 | S2W | 1.84
71 | S2R | 2.96

Row | Variant | protein stability index
72 | S2P | 1.97
73 | S2H | 2.68
74 | S2F | 2.48
75 | S2Q | 1.22
76 | S2K | 3.23
77 | S2Y | 2.36
78 | S2L | 1.92
79 | S2V | 2.07
80 | S2N | 2.01
81 | G5H | 2.65
82 | G5M | 1.69
83 | G5R | 1.74
84 | G5N | 2.66
85 | G5S | 2.38
86 | G5E | 2.35
87 | G5F | 2.33
88 | G5Y | 1.83
89 | G5A | 1.47
90 | G5Q | 2.33
91 | G5I | 2.51
92 | G5L | 2.02
93 | G5D | 1.62
94 | G5T | 1.92
95 | G5K | 2.17
96 | G5C | 2.03

Row | Variant | protein stability index
97 | G5V | 1.59
98 | G5P | 2.21
99 | S7E | 2.01
100 | S7D | 1.69
101 | S7K | 1.94
102 | S7M | 1.96
103 | S7N | 2.89
104 | S7F | 2.09
105 | S7T | 1.49
106 | S7P | 2.18
107 | S7V | 1.64
108 | S7Y | 2.62
109 | S7Q | 2.32
110 | S7I | 2.58
111 | S7G | 2.2
112 | S7A | 1
113 | S7H | 2.54
114 | S7R | 2.05
115 | S7L | 4
116 | S7C | 3.07
117 | P6I | 2.52
118 | P6D | 1.63
119 | P6M | 1.56
120 | P6A | 2.22
121 | P6Q | 2.16

Row | Variant | protein stability index
122 | P6T | 1.88
123 | P6N | 1.8
124 | P6H | 3.98
125 | P6G | 1.54
126 | P6E | 2
127 | P6L | 3.07
128 | P6K | 1.98
129 | P6Y | 2.16
130 | D4I | 1.71
131 | D4C | 2.21
132 | D4A | 1.62
133 | D4V | 2.38
134 | D4K | 1.97
135 | D4H | 1.41
136 | D4N | 1.73
137 | D4T | 2.01
138 | D4M | 1.71
139 | D4G | 1.98
140 | D4L | 1.78
141 | D4P | 1.07
142 | D4Y | 2.82
143 | D4E | 2.44
144 | D4F | 1.66
145 | D4W | 2.58
146 | D4S | 1.52

Row | Variant | protein stability index
147 | D4Q | 2.57
148 | R8A | 2.89
149 | F1A | 2.9
150 | F1V | 3.65
151 | F1C | 3.23
152 | F1G | 3.2
153 | F1N | 3.98
154 | F1P | 4.03
155 | F1H | 3.79
156 | F1E | 3.56
157 | F1S | 3.92
158 | F1T | 3.33
159 | F1R | 4.12
160 | F1I | 2.95
161 | F1K | 3.11
162 | F1D | 3.9
163 | F1M | 2.95
164 | F1W | 3.12
165 | F1Q | 3.85
166 | F1L | 4.19
167 | F1Y | 1.83
